Measurements as given in the supplement of paper PMC9170038.

System: MS2 coat protein
Test: apparent KD of MS2 coat protein; higher = weaker reporter binding
Conditions: Eterna round: R107
Outline: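 Illumina sequencing clusters were used for on-chip transcription of designed RNA switches. Titration with SNAP-549-labelled MS2 coat protein followed, in twofold steps from 0.7 or 1.5 nM to 3 µM in 100 mM Tris-HCl pH 7.5, 80 mM KCl, 4 mM MgCl2, without or with constant ligand. Apparent KD is each design's median of fits to normalised cluster binding curves.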

[1] = input ligand: theophylline 20 uM
[2] = input ligand: theophylline 2 mM
[3] = input ligand: tryptophan 2.4 mM

## AGAGUCAGACAAAAGUCUGGCUCAGCCGAAGGAGCGUCCGAAAGGACAGGUAGGUCGCGGUUACUUGAGGAUCACCCAAGUUCCU [ArgAS 26 #OpenEnded #AlternativeMS2]
Input ligand: arginine 13.2 mM
  apparent KD of MS2 coat protein: 69 nM
Input ligand: none
  apparent KD of MS2 coat protein: 163 nM
[1]
  apparent KD of MS2 coat protein: 151 nM
[2]
  apparent KD of MS2 coat protein: 177 nM
[3]
  apparent KD of MS2 coat protein: 144 nM

## CGUAAACAUGAGGAUCACCCAUGUGAUGAUACCAGCACGAUUAACUGCCCUUGGCAGCAUGUAUUGUACGACUUAUUGCCCAUCG [theeternabot_sameState_MS2_Theo_A_15]
Input ligand: arginine 13.2 mM
  apparent KD of MS2 coat protein: 15.4 nM
[1]
  apparent KD of MS2 coat protein: 23.3 nM
[3]
  apparent KD of MS2 coat protein: 13.5 nM

## UGGGUAGCAUAGCUUGAUAGCUACACUGAAGGAGCGAGGAUAACCUCAGGUAGGUCGCAGACAUGAGGAUCACCCAUGUAGAUGG [Same State Arginine A GF18]
Input ligand: arginine 13.2 mM
  apparent KD of MS2 coat protein: 63.9 nM
Input ligand: none
  apparent KD of MS2 coat protein: 186 nM
[1]
  apparent KD of MS2 coat protein: 359 nM
[2]
  apparent KD of MS2 coat protein: 231 nM
[3]
  apparent KD of MS2 coat protein: 276 nM

## AUCGUACCUGAUGAUACCAGCAUGUGCUCGUAACAUGAGGAUCACCCAUGUGAUCAGUGAUGCCCUUGGCAGCAUGAUCGGUGCA [Same State - Theophylline B (Freestyle 18)]
Input ligand: arginine 13.2 mM
  apparent KD of MS2 coat protein: 94 nM
[1]
  apparent KD of MS2 coat protein: 134 nM
[3]
  apparent KD of MS2 coat protein: 167 nM

## GAGUACACUACGGCCGCCACUCAAGGAGCUACAUAGCUCCUAGACAUGAGGAUCACCCAUGUACCGAGGACCGGGUAGAUCCUUA [Same State Typrtophan B GF2]
Input ligand: arginine 13.2 mM
  apparent KD of MS2 coat protein: 129 nM
[1]
  apparent KD of MS2 coat protein: 246 nM
[2]
  apparent KD of MS2 coat protein: 294 nM

## AACAUGAGGAUCACCCAUGUCUGAACUGAAGGAGCGCUAAACAAGGCAGGUAGGUCGCGGAAUUUUGUGUGCAUAUGCAUAUGGG [9.J]
Input ligand: arginine 13.2 mM
  apparent KD of MS2 coat protein: 22.8 nM
Input ligand: none
  apparent KD of MS2 coat protein: 24.4 nM
[1]
  apparent KD of MS2 coat protein: 35.3 nM
[2]
  apparent KD of MS2 coat protein: 29.6 nM
[3]
  apparent KD of MS2 coat protein: 24.7 nM

## AUCGGCAGAAAAGAUACCAGAGUAAUACACAACAUGAGGAUCACCCAUGUACGGACAAUCCUCCCUUGGCAGCUUGUAACAGUAU [theeternabot_sameState_MS2_Theo_B_32]
Input ligand: arginine 13.2 mM
  apparent KD of MS2 coat protein: 37.4 nM
[1]
  apparent KD of MS2 coat protein: 63.8 nM
[3]
  apparent KD of MS2 coat protein: 48 nM

## UGUCAUGGAAACAUGACAGGUUCUACCGGUCGAGGACCGGUACGGCCGCCACUCGAUUGGUGGCACAUGAGGAUCACCCAUGUUA [SS Tryp A #15]
Input ligand: arginine 13.2 mM
  apparent KD of MS2 coat protein: 24.1 nM
[1]
  apparent KD of MS2 coat protein: 39.6 nM
[2]
  apparent KD of MS2 coat protein: 30.3 nM

## UGUAUGUGAUCUGAUACCAGAGUGAAUAACCUGAGGAUCACCCUGGUAAGGCGAAAGCCACUCCCUUGGCAGCAGAUCGCAUACU
Input ligand: arginine 13.2 mM
  apparent KD of MS2 coat protein: 121 nM
Input ligand: none
  apparent KD of MS2 coat protein: 136 nM
[1]
  apparent KD of MS2 coat protein: 100 nM
[2]
  apparent KD of MS2 coat protein: 26.6 nM
[3]
  apparent KD of MS2 coat protein: 136 nM

## UGAAAGUAGGGAAGGAGCGCUACAACAUGAGGAUCACCCAUGUUAUGAGGAUCACCCAUGUGGCAGGUAGGUCGCCCAAAACAUG [Same State Arginine B]
Input ligand: arginine 13.2 mM
  apparent KD of MS2 coat protein: 41.3 nM
Input ligand: none
  apparent KD of MS2 coat protein: 77 nM
[1]
  apparent KD of MS2 coat protein: 95.1 nM
[2]
  apparent KD of MS2 coat protein: 92.7 nM
[3]
  apparent KD of MS2 coat protein: 68 nM

## GCGGUCGGAGUGCGGCGUGUUCCGCUCCGUCGAGGACCGGUACGGCCGCCACUCGACAUGAGGAUCACCCAUGUCCGACCGCGCG [#1 Exclusion - Tryptophan A Attempt #5 (HarryS)]
Input ligand: arginine 13.2 mM
  apparent KD of MS2 coat protein: 18.4 nM
Input ligand: none
  apparent KD of MS2 coat protein: 13.4 nM
[1]
  apparent KD of MS2 coat protein: 66.5 nM
[2]
  apparent KD of MS2 coat protein: 28.8 nM
[3]
  apparent KD of MS2 coat protein: 6.86 nM

## GGAGUAGAUGCGGCCGCCACUUUCUCAAGACACUACAUGAGGAUCACCCAUGUCCAUUCUACACUAAGGACCGGGCAUCCCAUGG [Alaa]
Input ligand: arginine 13.2 mM
  apparent KD of MS2 coat protein: 36.8 nM
[1]
  apparent KD of MS2 coat protein: 182 nM
[2]
  apparent KD of MS2 coat protein: 192 nM

## GCUGCCAUACGAAGGAGCGCUGGUGUAAUGAGGCGAACAUGAGGAUCACCCAUGUGGCAGAAGCAGGUAGGUCGCGUAUGGCAGC [EAB #15]
Input ligand: arginine 13.2 mM
  apparent KD of MS2 coat protein: 12.9 nM
Input ligand: none
  apparent KD of MS2 coat protein: 14.2 nM
[1]
  apparent KD of MS2 coat protein: 20.6 nM
[2]
  apparent KD of MS2 coat protein: 14.9 nM
[3]
  apparent KD of MS2 coat protein: 18.3 nM

## CAAUACGUAACUGAUACCAGUGUACUGACAUGAGGAUCACCCAUGUUGGGUUUUGUUGUACACCCUUGGCAGCAGAAUCGUAUUG [AstrosExyTheB#11]
Input ligand: arginine 13.2 mM
  apparent KD of MS2 coat protein: 46.7 nM
[1]
  apparent KD of MS2 coat protein: 79.4 nM
[3]
  apparent KD of MS2 coat protein: 66.3 nM

## UAUGUCGCCGAAGAUACCAGCCUGGCAAGCAACAUGAGGAUCACCCAUGUAAUUACUUAUGGCCCUUGGCAGCUUCAAAUAGAGC [theeternabot_sameState_MS2_Theo_B_42]
Input ligand: arginine 13.2 mM
  apparent KD of MS2 coat protein: 10.8 nM
[1]
  apparent KD of MS2 coat protein: 15.5 nM
[3]
  apparent KD of MS2 coat protein: 12.4 nM

## CCUUUUAUUAAUGAUACCAGCGUAUUAAGCAUCACCUUGGACAUGAGGAUCACCCAUGUACGCCCUUGGCAGCAUACCACUGGGU [theeternabot_exclusion_MS2_Theo_B_5]
Input ligand: arginine 13.2 mM
  apparent KD of MS2 coat protein: 35.7 nM
[1]
  apparent KD of MS2 coat protein: 52.2 nM
[3]
  apparent KD of MS2 coat protein: 34.7 nM

## UGUAUGGACUGAAGGAGCGGAAAAUAACCAUGAGGAUCACCCAUGGAAUAGGCGAAAGCCAUCCAGGUAGGUCGCAGUCCAUACU
Input ligand: arginine 13.2 mM
  apparent KD of MS2 coat protein: 23.4 nM
Input ligand: none
  apparent KD of MS2 coat protein: 31.6 nM
[1]
  apparent KD of MS2 coat protein: 32.4 nM
[2]
  apparent KD of MS2 coat protein: 36.6 nM
[3]
  apparent KD of MS2 coat protein: 31.6 nM

## CUUCUGAAAGCAAUGGGAUCUGUUAUUGAUACCAGCAUCUGAUUUUGCCCUUGGCAGCAAGAAACAUGAGGAUCACCCAUGUGGC [theeternabot_exclusion_MS2_Theo_A_19]
Input ligand: arginine 13.2 mM
  apparent KD of MS2 coat protein: 21.4 nM
[1]
  apparent KD of MS2 coat protein: 23.1 nM
[3]
  apparent KD of MS2 coat protein: 21 nM

## AACAUGAGGAUCACCCAUGUAAAACCGGUACGAGGACCGGUACGGCCGCCACUCGAAACAUGAGGAUCACCCAUGUAAUAAUAUU [Same State Trypophan A GF 21]
Input ligand: arginine 13.2 mM
  apparent KD of MS2 coat protein: 35.2 nM
Input ligand: none
  apparent KD of MS2 coat protein: 63.5 nM
[1]
  apparent KD of MS2 coat protein: 75 nM
[2]
  apparent KD of MS2 coat protein: 68.6 nM
[3]
  apparent KD of MS2 coat protein: 91.3 nM
